# Measurements reported in patent US20260078416A1, “ORTHOGONAL METABOLIC FRAMEWORK FOR ONE-CARBON UTILIZATION” (Mojia Biotech Pte. Ltd., priority 2021, published 2026).
# B1: JGI20: HACS variant; GenBank PWB41796.1 (protein)
# chain: MGQITGAQIVARALKQQGVEYMFGIVGIPVIPIAMFAQREGIKFYGFRNEQSASYAAAAVGYLTGRPGVCLGVSGPGMIHGVAGMANAWSNCWPMILIGGANDSYQNGQGAFQEAPQIEAARPFAKYCARPDSLARLPFYVEQAVRTSIYGRPGAVYLDLPGDIITGAMEEEDVHFPPRCPDAPRMMAPQESIDAAMAALKSAERPLVIVGKGAAYSRAENEVREFLETTQLPYLASPMGKGVMPDDHPLSIAPARSAALLGADVILLMGARLNWMMHFGHPPRFDPKVRVIQMDISAEEIGTNVPTEVALVGDAKAITTQLNASLKQQPWQYPSETTWWTGLRKKIDENGATVAEMMADESVPMSYYRVYREIRDLIPNDAIIQNEGASTMDIGRTLMPNFLPRHRLDAGSFGTMGVGLGQAIAAAAVHPDKHVFCIEGDSAFGFSGMEVETAARYGMKNITFIIINNNGIGGGPDTLDPTRVPPSAYTPNAHYEKMAEIYGGKGYFVTEPSQLRPALEEAIKADKPAIVNIMISATSQRKPQQFAWLTR
# B2: JGI15: HACS variant; GenBank HAK63664.1 (protein)
# chain: MAKSEGKVNGATLMARALQQQGVQYMFGIVGFPVIPIAIAAQREGITYIGMRNEQSASYAAQAASYLTGRPQACLVVSGPGVVHALAGLANAQVNCWPMLLIGGASAIEQNGMGAFQEERQVLLASPLCKYAHQVERPERIPYYVEQAVRSALFGRPGAAYLDMPDDVILGEVEEAAVRPAATVGEPPRSLAPQENIEAALDALQSAKRPLVIVGKGMAWSRAENEVRQFIERTRLPFLATPMGKGVMPDDHPLSVGGARSHALQEADLVFLLGARFNWILHFGLPPRYSKDVRVIQLDLSAEEIGNNRQAEVALVGDGKAIVGQLNQALSSRQWFYPAETPWREAIAAKIAGNQAAVAPMIADNTSPMNYYRVYRDIAARLPRNAIIVGEGANTMDIGRTQMPNFEPRSRLDAGSYGTMGIGLGFAVAAAAVHPGRPVIAVQGDSAFGFSGMEFETAARYGMPIKVIILNNGGIGMGSPAPRDGQPGMPHALSHDARYERIAEAFGGAGFYVTDSAELGPALDAAMAFKGPAIVNIKIAATADRKPQQFNWHG
# How the values were obtained:
# [1] = tested on: tartronate production from glyoxylate and formate; test: HACS screening with glyoxylate and formate (tartronate productivity); type: cell-based, E. coli; conditions: 5 mM glyoxylate and 20 mM formate, first round
# Text: We used 2-hydroxyacid productivity per cell density (μM/OD600) as indicator of HACS activity. 2-Hydroxyacids can be produced co-feeding various aldehydes and formic acid (formate) as carbon source in the presence of active HACS variant and acyl-CoA transferase from Clostridium aminobutyricum (CaAbfT). CaAbfT is shown to be capable of catalyzing reaction from formate to formyl-CoA (Nattermann, M., et al. ACS Catal 11 (9): 5396-5404 (2021)). HACS condenses aldehyde and formyl-CoA to form 2-hydroxyacyl-CoA, which can then be hydrolyzed to 2-hydroxyacid via native thioesterase activities (FIG. 31A).
# For the in vivo prototyping, we engineered vectors to independently control expression of HACS variants and CaAbfT, with HACS under control of the IPTG-inducible T7 promoter in pCDFDuet-1 and CaAbfT under control of a cumate-inducible T5 promoter in pETDuet-1 (FIG. 31B) and transformed them into the engineered strain of E. coli described in EXAMPLE 3.
# The HACS variants were screened for 2-hydroxyacid production using the high throughput screening platform as described in EXAMPLE 3 by co-feeding 5 mM aldehyde and 20 mM formate. The cells were harvested after 1 hour by centrifugation and the supernatant analyzed by HPLC (as described in EXAMPLE 2) or SoGO method.
# We used tartronic acid (tartronate) productivity per cell density (uM tartronate/OD600) as indicator of HACS activity. […]
# [2] = In vitro condensation of methyl ketones with formyl-CoA using purified enzymes; type: biochemical; conditions: 100 mM methyl ketone, 20 mM formate, 30° C., 24 hours, GC-MS
# Method: The formyl-CoA generation catalyzed by CoA transferase CaAbfT and condensation catalyzed by HACS JGI15 is identical to the examples described above (FIG. 38A).
# The enzymes CoA transferase CaAbfT and HACS JG115 were overexpressed and purified as described above. In vitro purified enzyme reactions for condensation of methyl ketone and formyl-CoA were comprised of 100 mM KPi pH 6.9, 10 mM MgCl2, 0.15 mM TPP, 2 mM acetyl-CoA, 1 μM JGI15, 2 μM CaAbfT, 20 mM formate and 100 mM tested methyl ketones. Reactions were incubated at 30° C. for 24 hours unless otherwise specified.
# For this analysis, samples containing acyl-CoAs were first treated with 1/20 of the reaction volume of 10 M NaOH solution was added to terminate the reactions. After 30 min hydrolysis, 1/20 of the reaction volume of 10 N H2SO4 was added to improve the efficiency of acid extraction. The resulting sample was extracted into 4 mL ethyl acetate by vigorous vortexing for 90 seconds. The organic phase was separated and evaporated to dryness under a stream of nitrogen. […] Samples were analyzed by GC (1 μL injection with a 20:1 split ratio) using helium as the carrier gas at a flowrate of 1.5 mL/min and the following temperature profile: initial 90° C. for 3 min; ramp at 15° C./min to 170° C.; ramp at 20° C./min to 300° C. and hold for 8 min. […]
# [3] = In vitro kinetic assay of purified HACS variants; substrate acetone; type: biochemical
# Method: The kinetic assay was performed with a coupled reaction providing formyl-CoA from formate catalyzed by CoA transferase CaAbfT using acetyl-CoA as a CoA donor.
# In vitro kinetic assay was comprised of 100 mM KPi pH 6.9, 10 mM MgCl2, 0.15 mM TPP, 2 mM acetyl-CoA, 1 μM CaAbfT, 0.25 μM HACS variants, and 20 mM sodium formate. Reactions were incubated at room temperature for 3 min to convert formate to formyl-CoA, and then specific concentration of aldehyde (specifically acetaldehyde or propionaldehyde here) was added to the reaction. After incubating another 3 min, 1/20 of the reaction volume of 10 M NaOH solution was added to terminate the reactions. After 30 min hydrolysis, 1/20 of the reaction volume of 10 N H2SO4 was added to neutralize the pH. Samples were centrifuged at 20817×g for 15 minutes and the supernatant analyzed by GC-MS as described below.
# For this analysis, 0.15 of the reaction volume of internal standard methyl succinate was added to the samples. The resulting sample was extracted into 4 mL ethyl acetate by vigorous vortexing for 20 min. […] Samples were analyzed by GC (1 μL injection with a 20:1 split ratio) using helium as the carrier gas at a flowrate of 1.5 mL/min and the following temperature profile: initial 90° C. for 3 min; ramp at 15° C./min to 170° C.; ramp at 20° C./min to 300° C. and hold for 8 min. […]
Molecule,better tartronate productivity compared to other HACS variants [1] [%],condensation of methyl ketones with formyl-CoA [2],"Kcat, app [3] [s⁻¹]"
B1,30,–,–
B2,–,could catalyze the condensation of tested ketones,6.8
